The text below walks through data of patent publication US20100189695A1, “IRAK-1 AS REGULATOR OF DISEASES AND DISORDERS” (priority 2008, published 2010).

For test [1], the system named is NFAT. The test can be described thus: NFAT responsive element luciferase reporter assay in transfected Hela cells. The test is classed as cell-based, human. From the text:
NFAT family transcription factors play critical roles in the pathogenesis of cardiovascular diseases, including hypertension and atherosclerosis. […] First, human Hela cells were trasfected with either empty vector plasmid or wild type IRAK-1 expression plasmid together with a NFAT responsive element-containing luciferase reporter plasmid. […] Subsequently, plasmids that express mutated IRAK-1 molecules (D340N, C203S, T113I, mutations which are present in human patients with cardiovascular diseases) have been generated.
Further experiments were performed to ask whether the C-terminal domain of IRAK-1 is involved in facilitating its suppressive regulatory function toward NFAT activity. […] Statistical significance was calculated using a t-Test for two-samples assuming unequal variances and p-values are as indicated.
In order to determine the mechanism for IRAK-1 involvement, transcription factor reporter assays were performed. In this set of experiments, NFAT reporter activity was determined in the presence of IRAK-1 or IRAK-M, a homologue of IRAK-1 (FIG. 10).

Test [2] has as its system NFAT. The test can be described thus: Co-immunoprecipitation of Flag-IRAK-1 constructs with NFAT in transfected Hela cells. The conditions noted are these: anti-Flag IP, anti-NFAT Western blot. The class given is binding, human. As for the experimental part: To further delineate which part of IRAK-1 is involved in its interaction with NFAT, experiments were performed using full-length IRAK-1 and a C-terminally truncated form (IRAK-1ΔC—see FIG. 1). Specifically, Hela cells were transfected with IRAK-1 encoding plasmids that express either the full length wild type human IRAK-1 protein or a truncated version of IRAK-1 with deletion of the C terminal region (amino acids 548 to 712 are deleted). Equal amount of cell lysates were harvested from the transfected cells and used to perform co-immunoprecipitation assays with an anti-Flag antibody. Immunoprecipitated proteins were resolved by electrophoresis, and the co-immunoprecipitated proteins were subjected to Western blot analyses using an anti-NFAT antibody.
On the technique in general: In western blotting, separated proteins are transferred to a membrane and probed.

B1: Interleukin-1 Receptor Associated Kinase-1 (protein)
chain: MAGGPGPGEPVVPGAQHFLYEVPPWVMCRFYKVMDALEPADWCQFAALIVRDQTELRLCERSEQRTASVLWPWINRNARVADLVHILTHLQLLRARDIITAWHPPAPVVPPSTAAPRPSSISAGSEAGDWSPRKLQSSASTFLSPAFPGSQTHSESELLQVPLPVSLGPPLPSSAPSSTKSSPESPVSGLQRAHPSPFCWPFCEISQGTCNFSEELRIGEGGFGCVYRAVMRNTTYAVKRLKEEADLEWTMVKQSFLTEVEQLSRFRHPNIVDFAGYCAESGLYCLVYGFLPNGSLEDQLHLQTQACSPLSWPQRLDILLGTARAIQFLHQDSPSLIHGDIKSSNVLLDERLMPKLGDFGLARFSRFAGAKASQSSTVARTSTVRGTLAYLPEEYIKTGRLAVDTDTFSFGVVILETLAGQRAVRTQGAKTKYLKDLIEDEAEEAGVTLKSTQPTLWVGVATDAWAAPIAAQIYKKHLDSRPGPCPPQLGLALAQLACCCMHRRAKKRPPMTQVYKRLEGLQAGPPWELEVAGHGSPSPQENSYMSTTGSAQSGDEPWQPLVVTTRAPAQAAQQLQRSPNQPVESDESVPGLSATLHSWHLTPGSHPSPASFREASCTQGGTTRESSVRSSPGFQPTTMEGSPTGSSSLLSSEPPQIIINPARQKMVQKLALYEEGVLDSLQLLSSGFFPGLDLEPEKSQGPEESDEFQS
In the case of B1, the “suppression of NFAT reporter activity” value in test [1] (co-transfection of expression plasmid with NFAT reporter) is “suppression of NFAT by IRAK-1 could be seen”. Further, in test [1] (co-transfection with NFAT-luciferase reporter plasmid, Hela cells, control adjusted to 100%), the “reduction of NFAT reporter luciferase activity compared with the control transfection” value is on record as −80%. Also, the “co-immunoprecipitation with NFAT” value in test [2] was “capable of co-immunoprecipitating with NFAT”.
